Measured values: US6872537

Biological target: microtubules prepared from bovine brain tubulin

Protein	ATPase activity (malachite green), stimulation by microtubules	maximal microtubule-stimulated ATPase rate	microtubule concentration at peak ATPase stimulation	microtubule severing, fluorescence microscopy assay
co-expressed baculovirus p60/p80 katanin heterodimer (both subunits with N-terminal His(6) tag) (protein) chain 1: HHHHHHMSVDEICENTKMGREYALLGNYETSLVYYQGVLQQIQKLLTSVHEPQRKHQWQTIRQELSQEYEHVKNITKTLNGFKSEPAAPEPAPNHGRAAPFSHHQHAAKPAAAEPARDPDVWPPPTPVDHRPSPPYQRAARKDPPRRSEPSKPANRAPGNDRGGRGPSDRRGDARSGGGGRGGARGSDKDKNRGGKSDKDKKAPSGEEGDEKKFDPAGYDKDLVENLERDIVQRNPNVHWADIAGLTEAKRLLEEAVVLPLWMPDYFKGIRRPWKGVLMVGPPGTGKTMLAKAVATECGTTFFNVSSASLTSKYHGESEKLVRLLFEMARFYAPSTIFIDEIDSICSKRGTGSEHEASRRVKSELLIQMDGVSGPSAGEESSKMVMVLAATNFPWDIDEALRRRLEKRIYIPLPEIDGREQLLRINLKEVPLADDIDLKSIAEKMDGYSGADITNVCRDASMMAMRRRIQGLRPEEIRHIPKEELNQPSTPADFLLALQKVSKSVGKEDLVKYMAWMEEFGSV chain 2: HHHHHHMATKRAWKLQELVAHSSNVNCLALGPMSGRVMVTGGEDKKVNLWAVGKQNCIISLSGHTSPVDSVKFNSSEELVVAGSQSGTMKIYDLEPAKIVRTLTGHRNSIRCMDFHPFGEFVASGSTDTNVKLWDVRRKGCIYTYKGHSDQVNMIKFSPDGKWLVTASEDTTIKLWDLTMGKLFQEFKNHTGGVTGIEFHPNEFLLASGSSDRTVQFWDLETFQLVSSTSPGASAVRSISFHPDGSYLFCSSQDMLHAFGWEPIRCFDTFSVFWGKVADTVIASTQLIGASFNATNVSVYVADLSRMSTTGIAQEPQSQPSKTPSGGAEEVPSKPLTASGRKNFVRERPHTTSSKQRQPDVKSEPERQSPTQDEGVKDDDATDIKDPDSYAKIFSPKTRVDHSPERNAQPFPAPLDVPGAQEPEPFKHPPKPAAAAAVAPVSRAPAPSASDWQPAQANPAPNRVPAATKPVPAQEVAPSRKPDPISTIIPSDRNKPANLDMDAFLPPAHAQQAPRVNAPASRKQSDSERIEGLRKGHDSMCQVLSSRHRNLDVVRAIWTAGDAKTSVESVVNMKDQAILVDILNIMLLKKSLWNLDMCVVVLPRLKELLSSKYENYVHTSCACLKLILKNFTSLFNQNIKCPPSGIDITREERYNKCSKCYSYLIATRGYVEEKQHVSGKLGSSFRELHLLLDQLE	this activity was stimulated ˜10-fold by microtubules	maximal microtubule-stimulated rate of 3 ATP/katanin/sec	peak at ˜2 µM tubulin	Both p60 and p60/p80 severed microtubules in this assay
baculovirus-expressed S. purpuratus katanin p60 subunit with N-terminal His(6) tag (protein) HHHHHHMSVDEICENTKMGREYALLGNYETSLVYYQGVLQQIQKLLTSVHEPQRKHQWQTIRQELSQEYEHVKNITKTLNGFKSEPAAPEPAPNHGRAAPFSHHQHAAKPAAAEPARDPDVWPPPTPVDHRPSPPYQRAARKDPPRRSEPSKPANRAPGNDRGGRGPSDRRGDARSGGGGRGGARGSDKDKNRGGKSDKDKKAPSGEEGDEKKFDPAGYDKDLVENLERDIVQRNPNVHWADIAGLTEAKRLLEEAVVLPLWMPDYFKGIRRPWKGVLMVGPPGTGKTMLAKAVATECGTTFFNVSSASLTSKYHGESEKLVRLLFEMARFYAPSTIFIDEIDSICSKRGTGSEHEASRRVKSELLIQMDGVSGPSAGEESSKMVMVLAATNFPWDIDEALRRRLEKRIYIPLPEIDGREQLLRINLKEVPLADDIDLKSIAEKMDGYSGADITNVCRDASMMAMRRRIQGLRPEEIRHIPKEELNQPSTPADFLLALQKVSKSVGKEDLVKYMAWMEEFGSV	p60 alone displayed a microtubule-stimulated ATPase activity		peak at ˜2 µM tubulin	Both p60 and p60/p80 severed microtubules in this assay
